From publication PMC4070910, “Cathepsin S Signals via PAR2 and Generates a Novel Tethered Ligand Receptor Agonist” (PLoS ONE, 2014)
“Also recorded” adds a separate entry of the source.

Experiments:
[1] = cited from earlier work
Source text: To better understand the mechanisms of PAR2 activation and regulation, we sought to identify cleavage sites and downstream signaling events induced by an endogenous cysteine protease, cathepsin S. Cysteine cathepsins, including cathepsin S, have been broadly implicated in health and disease including inflammation, cardiovascular and pulmonary disease, obsesity, itch and pain[15]. […] Cathepsin S is expressed in many types of cells. […] The KVDGTS sequence is preceded by LIG, placing G^40 in the P1 postion and L^38 in the P3 postion. The finding of cleavage after glycine is consistent with what is reported in the MEROPS database and a recent report on proteomic identification of protease cleavage sites (PICS)[25]. These reports reveal that cleavage after leucine at P3 is associated with cathepsin S, but less so than with glycine at P1. Correlations were otherwise weak between these reports and the cleavage sites identified here. Cathep ...

[2] = system: luciferase-PAR2M1 (leucine38 to alanine); assay: Gaussia luciferase release, luciferase-PAR2M1; format: cell-based, human; settings: cathepsin S 2 µM, 10 minutes, room temperature, triplicate
Source text: (§1) Gaussia luciferase cDNA was cloned, without its termination codon, into pcDNA3.1(−) as an Xho I-EcoR I fragment. Human PAR2 cDNA and its mutants, M1, M2 and M3, were generated using PCR primers designed to start after the signal sequence and end with a termination codon: […] and […] . The PCR amplified cDNAs were cloned into EcoR I and Hind III sites C-terminal to Gaussia luciferase cDNA. The resulting plasmids were called pGLPAR2, pGLPAR2M1, pGLPAR2M2 and pGLPAR2M3.
(§2) The QuickChange site-directed mutagenesis procedure (Agilent Technologies, Santa Clara, CA) was used to generate PAR2 N-terminal mutants. PAR2M1, with a single amino acid change, was created by substituting the leucine^38 codon, CTT, with alanine, GCT, using the primers: PAR2M1F, […], and PAR2M1R, […]. […]
(§3) The plasmid DNAs pGLPAR2, pGLPAR2M1, pGLPAR2M2 and pGLPAR2M3 (10 µg of each) were transfected into 2×10^6 HeLa cells as described above and plated into 10 cm dishes. […] Cells were scraped in order to eliminate the use of trypsin, which could activate PARs, and allowed for the luminescence assay to be performed in a small volume. […] Luminescence assays were performed in triplicate on 50 µl of the supernatants according to the instructions of the manufacturer (New England Biolabs, Ipswich, MA).

[3] = system: luciferase-PAR2M2 (glycine40 to alanine); assay: Gaussia luciferase release, luciferase-PAR2M2; format: cell-based, human; settings: cathepsin S 2 µM, 10 minutes, room temperature, triplicate
Source text: as §1, §2, §3

[4] = system: PKC (βII Ser660) phosphorylation in PAR2-transfected HeLa cells; assay: Western blot for p-PKC (Ser660) in PAR2-transfected HeLa cells; format: cell-based, human; settings: 10 minutes, room temperature; SLIGRL 10 µM, SLIGKVDGTS 10 µM, KVDGTS 100 µM, cathepsin S 1 µM
Protocol: HeLa cells were transfected with PAR2 plasmid DNA as described above. Untransfected HeLa cells were plated as a control. Forty-eight hours after transfection, cells were rinsed with PBS three times. Transfected HeLa cells were incubated with either SLIGRL (10 µM), SLIGKVDGTS (10 µM), KVDGTS (100 µM), or cathepsin S (1 µM) at room temperature for 10 minutes. Untransfected HeLa cells were treated with SLIGRL (10 µM) in a similar manner. A subset of transfected HeLa cells remained untreated and served as a negative control. After incubation, cells were harvested, pelleted and lysed by sequential freeze-thaw cycles. Cell lysates were centrifuged at 4°C for 15 minutes. Supernatants were collected and protein concentrations were determined by Bradford assay. Equal amounts of cell lysates were loaded onto NuPAGE Novex Bis-Tris mini gels, electrophoresed and transferred to nitrocellulose membranes using standard protocols. The blot was first probed with rabbit anti-phospho-PKC (βII Ser660) antibody (Cell Signalling Technology, Danvers, MA), and later reprobed with a mouse anti-actin antibody to identify the control actin band at 42 kDa. Primary antibodies were labeled with HRP-conjugated donkey anti-rabbit antibody and HRP-conjugated donkey anti-mouse antibody, respectively, followed by detection of the position of the antigen on the blot.

PAR2 = settings: proteases expressed in the skin; cited from earlier work
Source text: PAR2 signaling has been implicated in the development of inflammatory and bowel diseases, asthma, itch and pain. The receptor is expressed on many types of cells including keratinocytes, sensory neurons, fibroblasts, endothelial cells, and inflammatory cells, [3]. Consistent with this broad expression, PAR2 is involved in numerous physiologic and pathophysiologic processes in response to both endogenous and exogenous proteases.

[5] = system: salmon sperm transfected HeLa cells; assay: IP1 (IP-One HTRF) assay in salmon sperm DNA-transfected HeLa cells; format: cell-based; settings: cathepsin S 1 µM, 1 hour, 37°C
Protocol: To determine the effect of PAR2 activation on Gq stimulation, we measured IP1, a downstream metabolite of IP3, using the IP-One HTRF assay from Cis Bio, Medford, MA. HeLa cells were transfected with salmon sperm DNA or PAR2 cDNA as described above, plated in 10 cm culture dishes and incubated at 37°C with 5% CO2. After 24 hours, the cells were trypsinized, counted, plated into 96-well plates at 80,000 cells/well and incubated for another 24 hours. The medium was replaced with a stimulation buffer containing LiCl, per the instructions of the manufacturer. Ligands, including cathepsin S (1 µM), KVDGTS (100 µM) and SLIGRL (10 µM) were added to wells and incubated at 37°C for 1 hour and IP1 levels determined. This assay was performed on multiple wells containing each ligand on three occasions. Error bars represent SEM.

B1: cathepsin S: Recombinant human cathepsin S, cysteine protease, expressed in E.coli, refolded and activated (protein, UniProt P25774 115-331, looked up)
Cathepsin S: LPDSVDWREKGCVTEVKYQGSCGACWAFSAVGALEAQLKLKTGKLVSLSAQNLVDCSTEKYGNKGCNGGFMTTAFQYIIDNKGIDSDASYPYKAMDQKCQYDSKYRAATCSKYTELPYGREDVLKEAVANKGPVSVGVDARHPSFFLYRSGVYYEPSCTQNVNHGVLVVGYGDLNGKEYWLVKNSWGHNFGEEGYIRMARNKGNHCGIASFPSYPEI
- cleavage after alanine (in words) ([1]; PICS report): rarely cleaves after alanine
- elastase activity and Ii chain cleavage (in words) [1]: potent elastase; also recorded: cleaves the Ii chain
- pH dependence of activity (in words) [1]: active at neutral pH
- receptor cleavage, luciferase luminescence (in words) [2]: cleaved the native and PAR2M1 receptors
- receptor cleavage, luciferase luminescence (in words) [3]: did not cleave PAR2M2 or PAR2M3
- PKC Ser660 phosphorylation (in words) [4]: induce PKC Ser660 phosphorylation
- PAR2 activation (in words) (PAR2): activated
- IP1 level in salmon sperm transfected cells (in words) [5]: no effect above baseline IP1 levels
